Results published in the nanobody polyreactivity screen of Harvey et al. (2022).

Assay: yeast display, Sf9 membrane polyspecificity reagent, FACS + sequencing; frameworks hold sequencing errors
Procedure, shortened: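 Galactose-induced (36–48 hours) yeast carrying a synthetic nanobody display library were exposed to 10% biotinylated, detergent-solubilized Sf9 membrane reagent at 4 °C for 1 hour. FACS followed streptavidin microbead enrichment, using low and high (top ~1%) gates for expression (anti-HA) and reagent binding (streptavidin). Colony PCR, MiSeq 2 × 250 sequencing and CDR-length filtering followed. Labels for polyreactivity reflect the gate of origin.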

Row | Sequence | polyreactivity (PSR sort gate)
1 | QVQLVESGGGLVQAGGSLRLSCAASGLTFGSYAMGWYRQAPGKERELVAAISRSGGSTYYADSVKGRFTISRDNAKNTVYLQMNSLKPEDTAVYYCNAVNPYYAPTDRRVGYDYWGQGTQVTVSS | high polyreactivity
2 | QVQLVESGGGLVQAGGRLRLSCAASGSIFINNTMGWYRQAPGKERELVAAISITGGSTYYADSVKGRFTISRDNAKNTVYLQMNSLKPEDTAVYYCAADPLQLYDYNYWGQCTQVTVSS | low polyreactivity
3 | QVQLVESGGGLVQAGGSLRLSCAASGFTFNWNTMGWYRQAPGKERELVAAISSGGITYYADSVKGRFTISRDNAKNTVYLQMNSLKPEDTAVYYCNVRPFRPHNRYGYWGQFTQVTVSS | high polyreactivity
4 | QVQLVESGGGLVQAGGSLRLSCAASGRTFSGYAMGWYRQAPGKERELVAAISSGGGSTYYADSVKGRFTISRDNAKNSVYLQMNSLKPEDTAVYYCAADGYPGDYDYWGQGTQVTVSS | low polyreactivity
5 | QDQLVESGGGLVQAGGSLRLSCDASGSIFRYYTMGWYRQAHGQERELVARISYSGGRTYYAVSVKGRFTISRDNAKNTVYLQMNSLKPEDTAVYYCNTVTRWVGKLEYWGHGTQVTVSS | high polyreactivity
6 | QVQLVESGGGLVQAGGSLRLSCAASGRTFSSYTMGWYRQAPGKERELVAAISWRGGSTYYADSVKGRFTISRDNAKYTVYLQMTSLKPEDTAVYYCNADVYSTYYNYNYWGQGTQVTVSS | high polyreactivity
7 | QVQLVESGGGLVQAGGSLRLSCAASGNIFGVYTMGWYRQAPGKERELVAVITSGGRTYYADSVKGRFTISRDNAKNTVYLQMNSLKPADTAVYYCAADIRYTREEYWGQGPQVTVSS | high polyreactivity
8 | QVQLVESGGALVQAGGSLRLSCAASGSIFGFYMGWYRQAPGKERELVAAISGSGGNTYYADSVKGRFTISRDNAKNTVYLQMNSLKPEDTSVYYCAAERWDLWLLYDYWGQGTQVTVSS | high polyreactivity
9 | QGQLVESGGGLVQAGGSLRLSCAASGSTFGYNVMGWYRQAPGKERELVAAINYSGVRTYYADSVKGRFTISRDNAKNTVYLQMNSLKPEDTAVYYCNATPTRAVGPYQYNYWGQGTQVTVSS | high polyreactivity
10 | QVQLVESGGGLVQAGGSLRLSCAASGFIFTRYAMGWYRQAPGKERELVAAISWSGGSTYYADSVKGRFTISRDNAKNTVYLQMNSLKPEDTAVYYCAADGSDSYDYWGQGTQVTVSS | low polyreactivity
11 | QVQLVESGGGLVQAGGSLRLSCAASGFTFYRYALGWYRQAPGKERELVAAISQRGGTTYYADSVKGRFTISRDNAKNTVYLQMNSLKPEDTAVYYCAKDRYYYPGNYWGQGTQVTVSS | high polyreactivity
12 | QVQLVESGGGLVQAGGSLRLSCAASGRTFGYYAMGWYRQAPGKERELVATITSRGGDTSYADSVKGRFTISRDNAKNTVYLQMKSLKPEDTAVYYCAADRFQGRDDYWGQGTQVTVSS | high polyreactivity
13 | QVQLVESGGGLVQAGGSLRLSCAASGRTFTGNAMGCYRQAPGKERELVAAISTSGTRTSYADSVKGRFTISRDNAKNTVYLQMNSLKPEDTAVYYCAALRKSLYRTYTYDYWGQGTQVTVSS | high polyreactivity
14 | QVQLVESGGGLVQAGGSLRLSCAASGITFTSYVMGWYRQAPGKERELVAAIRWSGGRTYYADSVKGRFTISRDNAKNTVYLQLNSLKPEDTAVYYCNRVTRSHVDYWGQGTQVTVSS | high polyreactivity
15 | QVQLVESGGGLVQAGGSLRLSCAASGFIISHYAMGWYRQAPGKERELVAAISSSGGSTYYADSVKGRFTISRDNAKNTVYLQMNSLKPEDTAVYYCAAAAGAYDYDYWGQGTQVNVSS | high polyreactivity
16 | QVQLVESGGGLVQAGGSLRLSCAASGSTFRINAMGWYRQAPGKERELVADINSGGNTTYADSVKGRFTISRDNAKNTVYLQMNSLKPEDTAVYYCNAPYSFFWQQMNYWGQGTQVTVSS | low polyreactivity
17 | QVQLVESGGGLVQAGGSLRLICAASRFTFPGYTLGWYRQEPGKERELVATINRSGSTTYADSVKGRFTISRDNAKNTVYLHMYRLKPQDTADYYCAAVVWGSGNKMDYWGQGTQVTGSS | high polyreactivity
18 | QVQLQESGGGLVQAGGSLGCEASGNISTRSEMGWYRQAPGKEREFVATINSGGITNYADSVKGRFTISRDNAKNTVYLRMNSLKPEDTAVYYRAVYGYFSDPYDYWGQGTQVTVSS | low polyreactivity
19 | QVQLVESGGGLDQAGGSLRLSCAASGRIFSYYAMGWYRQAPGKERELVAVISRRGDNTYYADSVKGRFTISRDNAKKTVYFQMNSLKPEDTAVYYCAARFGYLTFYSSGYYWGQGTQVTVSS | high polyreactivity
20 | QVQLVESGGGLVQAGGSLRLSCAASGSIFTVYDMGWYRQAPGKERELVAAIDSSGGSTYYADSVKGRFTISRDNAKNTVYLQMNSLKPEDTAVYYCAADGDTTSPTYYIFWSGEFDYWGQGTQVTVSS | low polyreactivity
21 | QVQLVESGGGLVQAGGSLRLSCAASGRIIPLNAMGWYRPAPGKERELVAAISYDGCTYYADSVKGRFTISRDNAKNTVYLQMNSVKPEDTAVYYCAARGSYRGPYNVEYDSWGQGTQVTVSS | low polyreactivity
22 | QVQLVESGGGLVQAGGSLRLSCAASGSIFFYYAMGWYRQAPGKERELVASISTDGSTYADSVKGRFTISRDNAKNTVYLQMNSLKPEDTAVYYCNADTRGEYTYVSWYDYWGQGTQVTVSS | low polyreactivity

Row | Sequence | polyreactivity (PSR sort gate)
23 | QVQLVESGGGLVQAGGSLRLSCAASGSTYYLYAMGWYRQAPGKERELVAVITWSDGSTYYADSVKGRFTISRDNAKNTVYFQMNSLKPEDTAVSYCAKDLDSGGRGYYWGQGTQVTVSS | low polyreactivity
24 | QVQLVESGGGLVQAGGSLRLSCAASGRIFYGYDMGWYRQAPGKERELVAAITRGVSTYYADSVKGRFTISRDNAKNTVYLQMNSLKPEDTAVYYCAADLSPYVNYWWEYYYWGQGTQVTVSS | low polyreactivity
25 | QGQLVESGGGLVQAGGSLRLSCAASGSTYLGNDMAWYIQAPGKERELVATITGSSGSTYYADSVKGRFTISRDNAKNTVYLQMNSLKPEDTAVYYCNTVYNYWDCYDYWGQGTQVTVSS | low polyreactivity
26 | QFQLVESGGGLVQAGGSLRLSCAASGIIFHIYAMGWYRQAPGKERELVAAISTGSSTYYADSVKGRFTISRDNAKNTVYLQMNSLKPEDTSVSYCNAVSRYLWVKGFDYWGQGTQVTVSS | low polyreactivity
27 | QVQLVESAGGLVQAGGSLRLSCGASGRIFYYNTMGWYRQAPGKERELVAAITTNGGSTYYADSVKGRFTISRDNAKNTVYLQMYSLKPEDTAVYYCNRDRYPYYYAYNYWGQGTQVTVSS | low polyreactivity
28 | QVQLVESGGGLVQAGGSLRFSCAASGSTFTVYAMGWYRQAPGQERELVAAITNGGRTYYADSVKGRFTISRDNAKNTVYLQMNSLKPEDTAVYYCAADVYYDDYLYDYWGQGTQVTVSS | high polyreactivity
29 | QVQLVESGGGLVQAGGSLRLSCAASGSIFYHYAMGLYRQAPGKERELVAAISGSGGSTYYADSVKGRFTISRDNAKNTVYLQMNSLKPEDTAVYYCAADTSRYHYTRYFFDSDYWGQGTQVTVSS | low polyreactivity
30 | QVQLVESGGGLVQAGGSLRLSCAASGRIFDRNAMGWYRQAPGKERELVAAIDDSGGDTSYADSVKGRFTISRDNAKNTVYLQMNSLKPEDTAVYYCNAGYADFVTYPRYYYWGQGTQVTVSS | low polyreactivity
31 | QVQLVESGGGLVQAGGSLRLSCAASGSTFLGYAMGWYRQAPGKERELVAAITYSAGSTYYADSVKGRFTISRDNAKNTVYLQMNSLKPEDTAVYYSAKRYSGYDHWGQGTQVTVSS | low polyreactivity
32 | QVQLVESGGGLVQAGGSLRLSCAASGSTFVWNAMGWYRQAPGKERELVAAITSSGGSTYYADSVKGRFTISRDNAKNTVYLQMNSLKPEDTAVYYCAATGVNYRGLLGVAWGNNYWGQGTQVTVSS | low polyreactivity
33 | QVQLVESGGGLVQAGGSLRLSCAASGRIFVPYAMGWSRQAPGKERELVAAISWRGGSTNYADSVKGRFTISRDNAKNTVYLQMNSLKPEDTAVYYCAAVPVRYRYSYGYYYWGQGTQVTVSS | high polyreactivity
34 | QVQLVESGGGLVQAGGSLRLSCAASGFIYSTYAMGWYRQAPGKERELVAAISWSGGRTNYADSVKGRFTISRDNAKNTVYLQMNSLKPEDTAVYYCAVGGERGARIGSNHRGSRYDYWGQGTQVTVSS | high polyreactivity
35 | QVQLVESGGGLVQAGGSLRLSCAASGSTFTTYPMGWYRQAPGKERELVAAISTNGGRTFYADSVKGRFTISGDNAKKTVYLQMNSLKPEDTAVYYCAAEYGLYAPGYYYWGQGTQVTVSS | low polyreactivity
36 | QVQLVESGGGLVQAGGSLRLSCAASGRIFGKYVMGWYRQAPGKERELVAAISRSGGSTSYADSVKGRFTISRDNAKNTVYLQMNSLKPEDTEVYYCAAGFLSGWWFAYDYWGQGTQVTVSS | high polyreactivity
37 | QVQLEESGGGLVQAGGSLRLSCAASGRTFRFYAMGWYRQAPGKERELVAAISESGGNTYYADSVKGRFTISRDNAKNTVYLQMNSLKPEDTAVYYCAARGRWKYNYWGQGTQVTVSS | high polyreactivity
38 | QDQLVESGGGLVQAGGSLGLSCAASGIIFYGYAMRWYRPAPGKERELVAAISRSGGSTYYADSVKGRFTISRDNAMNTVYLQMNSLKPEDTAVYYCAASGVTYDYWGQGTQVTVSS | high polyreactivity
39 | QVQLVESGGGLVQAGGSLRLSCAASGITFYYNAMGWYRQAPGKERELVATINDSDGSTYADSVKGRFTISRDNAKNTVYLQMNSLKPEDTAVYYCNAQTRAGYYFGYGYWGQGTQVTVSS | low polyreactivity
40 | QVQLVESGGGLVQAGGSLRLRCAASGRTFFVYTMGWYRQAPGKERELVAAITSDTSTTYADSVKGRFTISRDNAKNTVYLQMISLKPEDTAVYYCAAEGYVGYYDYDYWGQGTQVTVSS | low polyreactivity
41 | QVQLVESGGCLVQAGGSLRLSCAASGGIFYPNAMGWYRQAPGKEREFVASITRSGGSTYYADSVKGRFTISRDNAKNTVYLQLNSLTPEDTAVYDCAAAYKSLYTYTRFYYWGQGTQVTVSS | high polyreactivity
42 | QVQLVESGGGLVQAGGSLRLSCAASGRTFIANAMGWYRQAPGKERELVAVITLNGGSTYYADSVKGRFTISRDNAKNTVYLQMNSLKPEDSAVYYCDAGRYYNLRATHGYWRQGTQVTVSS | low polyreactivity
43 | QVQLVESGGGLVQAGGSLRLSCAASGYIFKWYAMGWYIQAPGKERELVAAITWSGDTTYYADSVKGRFTISRDNAQNTVYLQMNSLKPVDTAVYYCAVERDDQDYVYWGQGTQVTVSS | low polyreactivity
